Results as given in patent US12679888B2, “IL-18 binding protein (IL-18BP) and antibodies for treating inflammatory diseases” (AB2 BIO SA, priority 2015, dated 2026).

Columns and labels:
IL-18 [1] = molecular target: T1, IL-18 (Mus musculus, UniProt P70380); experiment: Dissociation constant (Kd) used for dose selection, mouse; format: binding
T1 sequence (P70380 36-192): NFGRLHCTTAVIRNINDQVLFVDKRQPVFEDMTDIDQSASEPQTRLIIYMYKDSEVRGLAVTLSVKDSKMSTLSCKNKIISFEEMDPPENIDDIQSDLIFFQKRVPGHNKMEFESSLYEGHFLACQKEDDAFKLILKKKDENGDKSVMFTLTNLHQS
Description: (§1) No validated animal model has been described for this condition. In the collagen-induced arthritis murine model the active dose for r-hIL-18BP administered intraperitoneally (i.p.) was determined to be 1 mg/Kg body weight. […] Altogether the expected pharmacologically active dose for a “humanized mice” treated by s.c. route with r-hIL-18BP is round 4.85 mg/kg. […] Although the guidance was initially written for extrapolating animal doses to healthy volunteers, its principles can be applied also to patients. […] Those doses will be likely also ineffective in AoSD patients considering that blood levels of IL-18 in AoSD are higher than those reported in the two above mentioned conditions.

RA and Pso patients = experiment: Previous human studies with r-hIL-18BP in RA and Pso patients; format: in vivo; conditions: 20 mg 3 times a week
Description: as §1

IL-18 [2] = molecular target: T2, IL-18 (Homo sapiens, UniProt Q14116); experiment: Titration of free IL-18 as a function of IL-18BP level (free IL-18 ELISA); format: binding; set-up: purchased; conditions: 400 pg/mL IL-18 in PBS, 5% BSA
T2 sequence (Q14116 37-193): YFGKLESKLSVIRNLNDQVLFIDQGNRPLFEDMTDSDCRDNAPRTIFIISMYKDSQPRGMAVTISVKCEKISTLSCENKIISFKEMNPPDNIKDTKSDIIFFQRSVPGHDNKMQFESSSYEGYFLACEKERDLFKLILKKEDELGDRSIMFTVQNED
Description: Microplate wells are coated with an appropriate volume phosphate buffer saline solution containing recombinant human IL-18BP (r-hIL-18BP) as shown in SEQ ID NO 7, and less than 30% of N-terminal and/or C-terminal deletion variants of IL-18BP. A description of the r-hIL-18BP is provided in section 6.6.1 below. A description of the purification protocol is provided in section 6.6.2. Plates are incubated for a period of time at 4° C. and then stabilized with a blocking buffer containing bovine serum albumin or other appropriate blocking agents. Once the reaction is finished, microplates are sealed and stored at 4° C. until used for detection of free IL-18. […]
As an example, for a final reaction volume of 100 μl, dispense first 80 μl of biotin/antibody conjugate. […] The resulting reactions are then monitored with a microplate reader at an appropriate nanometer wavelength for absorbance or fluorescence of the produced reagent.
A constant quantity of recombinant IL-18 was titrated as a function of different and well-defined quantities of IL-18BP in order to understand when free IL-18 is not any more detectable. A PBS solution of 400 pg/mL IL-18 supplemented by 5% BSA was spiked with defined quantities of IL-18BP ranging from 0 to 10′000 pg/mL. The molar ratios were calculated according to the respective molecular weight of IL-18 and IL-18BP. […]

IL-18 [3] = molecular target: T2, IL-18; experiment: New BIAcore setup: IL-18BP bound to chip, affinity to IL-18; format: binding; set-up: purchased; conditions: IL-18BP bound to BIAcore chip
Source text: Following the above KD results obtain by titration, we tested the binding affinity of IL-18BP to IL-18 with a simpler BIAcore setup consisting of binding IL-18BP to the BIAcore chip and then testing its affinity to IL-18. The method setup is the contrary of Kim et al 2000 ^8, who bound IL-18 to the BIAcore chip with a monoclonal antibody and then tested the affinity of the complex antibody-IL-18 to IL-18BP.

B1: IL-18BP: soluble glycoprotein of 164 amino acids produced from a Chinese Hamster Ovary cell line; isoform a, SEQ ID NO 7 (protein, listed as Homo sapiens)
chain: TPVSQTTTAATASVRSTKDPCPSQPPVFPAAKQCPALEVTWPEVEVPLNGTLSLSCVACSRFPNFSILYWLGNGSFIEHLPGRLWEGSTSRERGSTGTQLCKALVLEQLTPALHSTNFSCVLVDPEQVVQRHVVLAQLWAGLRATLPPTQEALPSSHSSPQQQG
modifications: CHO glycosylation; MISC_FEATURE - Human interleukin-18 binding protein isoform a
In the case of B1, the Kd (IL-18 [1]) is reported as 400 pM, the clinical efficacy (RA and Pso patients) is reported as “no efficacy” and the “IL-18BP concentration at which 400 pg/mL IL-18 detection is near background detection level” value (IL-18 [2]) is reported as at least 6000 pg/mL. The Ka (IL-18 [3]) was 5.3 ± 1.2 10^+5/MS and the Kd (IL-18 [3]) was 20 to 30 pM.
